{
  "source": "patent US20250122242A1",
  "about": "(WISCONSIN ALUMNI RESEARCH FOUNDATION, published 2025)",
  "key": {"[1]": {"molecular_target": "Aβ42-T7n (amyloid-β42 fused through a GGSGG linker to the N-terminal half of split T7 RNA polymerase)", "experiment": "cell-based or functional assay"}, "[2]": {"molecular_target": "T1, hIAPP-T7n (human islet amyloid polypeptide fused through a GGSGG linker to the N-terminal half of split T7 … (human))", "T1 chain": "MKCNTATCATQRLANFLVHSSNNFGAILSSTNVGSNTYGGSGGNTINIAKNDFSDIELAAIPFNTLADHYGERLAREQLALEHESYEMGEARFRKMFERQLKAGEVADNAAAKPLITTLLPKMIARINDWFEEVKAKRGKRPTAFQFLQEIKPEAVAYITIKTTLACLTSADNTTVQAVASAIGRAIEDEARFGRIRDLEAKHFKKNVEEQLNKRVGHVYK", "experiment": "cell-based or functional assay"}},
  "data": [
    {"binder": "cyclo(CKVWQLL) (not fully specified; printed as cyclo-CKVWQLL)", "values": [
      {"measurement": "fold phage propagation on E. coli encoding the Aβ42-T7n selection, against scrambled control", "setting": "[1]", "result": "~300", "unit": "fold"}
    ]},
    {"binder": "cyclo(CKVWQLL) (not fully specified; printed as cyclo-CKVWQLL)", "note": "[cyclo-CKVWQLL (SEQ ID NO:30) encoded on parent selection phage as SICLOPPS precursor]", "values": [
      {"measurement": "fold phage propagation on E. coli encoding the Aβ42-T7n selection, against SP carrying scrambled control cyclo-CVQWLKL", "setting": "[1]", "result": "~500", "unit": "fold"}
    ]},
    {"binder": "cyclo(CDLGVFR) (not fully specified; printed as cyclo-CDLGVFR)", "note": "[cyclo-CDLGVFR (SEQ ID NO:68) encoded on selection phage as SICLOPPS precursor]", "values": [
      {"measurement": "propagation of clonal SP on hIAPP against Aβ42 selection cells", "setting": "[2]", "result": "~1000", "unit": "fold"}
    ]},
    {"binder": "cyclo(CRCVFSG) (not fully specified; printed as cyclo-CRCVFSG; cysteine pairing not given here)", "note": "[cyclo-CRCVFSG (SEQ ID NO:69) encoded on selection phage as SICLOPPS precursor]", "values": [
      {"measurement": "propagation of clonal SP on hIAPP against Aβ42 selection cells", "setting": "[2]", "result": "~10", "unit": "fold"}
    ]}
  ]
}
